Laboratory results: patent US20170335314

System: biotinylated anti-BRD7 Fab fragment (murine IgG1 isotype; bFab) (Mus musculus)
Experiment: pulldown
Settings: streptavidin bead capture with QPCR readout; PBSM (PBS with 1 mM MgCl2), overnight

GCAAAGACATCTGGACACGCCACTAAGTGGAGGTGATCTGTACTTCATTTATGAGATCGCGGCGAGGAGAAGGAGACTTAGAGGC [aptamer 228 (10AptR1)]
Kd: 11 nM
